Test results reported in patent publication US20050042747A1, “Hivgp120-induced bob/gpr15 activation” (priority 2001, published 2005).

Key:
Assay type in all cases: cell-based
Design in all cases: key: — = no calcium flux seen at any dilution tested
CCR4 = molecular target: T1, CCR4 (Homo sapiens, UniProt P51679); assay: gp120-induced calcium flux, Ghost (3) cells transfected with CCR4; details: Ghost (3) CCR4 cells
T1 construct: host or cells: Ghost (3) cells (human osteosarcoma, CD4+)
T1 sequence (P51679 1-360): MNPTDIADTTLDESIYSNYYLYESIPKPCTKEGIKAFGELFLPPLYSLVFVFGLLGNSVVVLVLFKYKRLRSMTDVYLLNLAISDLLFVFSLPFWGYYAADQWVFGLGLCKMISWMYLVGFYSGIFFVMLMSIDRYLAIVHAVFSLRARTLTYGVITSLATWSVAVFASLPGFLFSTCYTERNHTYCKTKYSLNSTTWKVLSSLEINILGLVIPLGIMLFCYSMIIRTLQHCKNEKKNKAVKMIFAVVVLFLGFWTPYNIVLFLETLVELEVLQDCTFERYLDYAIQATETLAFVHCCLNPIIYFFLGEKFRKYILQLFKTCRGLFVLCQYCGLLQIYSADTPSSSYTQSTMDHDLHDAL
Excerpt: (§1) Human osteosarcoma cell lines were transfected to express CD4, one or another of the HIV coreceptors, and a Green Fluorescent Protein reporter for active HIV infection, for the purpose of testing which of the known coreceptors was used to induce HIV infection by a given HIV strain (Morner A. J Virol 73:2343-9, 1999 and Deng K Nature 388:296-300, 1997). These cells were obtained from the AIDS Research and Reference Reagent Program, courtesy of Dr. Vineet KewalRamani and Dr. Dan Littman. These cells were grown in DMEM with 10% bovine calf serum supplemented with 0.5 mg/ml G418, 0.1 mg/ml hygromycin, and 1 microgram/ml puromycin, and were used at low passage number (less than 10). We have discovered that these cell lines are also activated by gp120 of certain viral strains, inducing a calcium flux in these cells.
(§2) Within 4 days of plating, coreceptor-transfected Ghost (3) cells (as well as the parent cell line not transfected to express any HIV coreceptors as a control) were put in Locke's medium, then treated with Fluo-4 (5 micrograms/ml for 30 minutes at 37° C.). […] The results are given in the following table, expressed as the minimal concentration of gp120 resulting in a significant calcium flux. […]

CCR3 = molecular target: T2, CCR3 (Homo sapiens, UniProt P51677); assay: gp120-induced calcium flux, Ghost (3) cells transfected with CCR3; details: Ghost (3) CCR3 cells
T2 construct: host or cells: Ghost (3) cells (human osteosarcoma, CD4+)
T2 sequence (P51677 1-355): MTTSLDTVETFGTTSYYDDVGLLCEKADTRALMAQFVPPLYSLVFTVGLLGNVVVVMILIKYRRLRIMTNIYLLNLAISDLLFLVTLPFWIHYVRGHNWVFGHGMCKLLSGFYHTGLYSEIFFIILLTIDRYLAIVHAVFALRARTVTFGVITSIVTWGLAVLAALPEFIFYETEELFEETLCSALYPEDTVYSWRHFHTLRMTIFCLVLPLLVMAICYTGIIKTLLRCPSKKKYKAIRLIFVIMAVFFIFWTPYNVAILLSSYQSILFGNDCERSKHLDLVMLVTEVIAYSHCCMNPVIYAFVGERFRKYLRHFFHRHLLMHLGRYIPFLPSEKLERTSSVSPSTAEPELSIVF
Excerpt: as §1, §2

CX3CR1 = molecular target: T3, CX3CR1 (Homo sapiens, UniProt P49238); assay: gp120-induced calcium flux, Ghost (3) cells transfected with CX3CR1; details: Ghost (3) CX3CR1 cells
T3 construct: host or cells: Ghost (3) cells (human osteosarcoma, CD4+)
T3 sequence (P49238 1-355): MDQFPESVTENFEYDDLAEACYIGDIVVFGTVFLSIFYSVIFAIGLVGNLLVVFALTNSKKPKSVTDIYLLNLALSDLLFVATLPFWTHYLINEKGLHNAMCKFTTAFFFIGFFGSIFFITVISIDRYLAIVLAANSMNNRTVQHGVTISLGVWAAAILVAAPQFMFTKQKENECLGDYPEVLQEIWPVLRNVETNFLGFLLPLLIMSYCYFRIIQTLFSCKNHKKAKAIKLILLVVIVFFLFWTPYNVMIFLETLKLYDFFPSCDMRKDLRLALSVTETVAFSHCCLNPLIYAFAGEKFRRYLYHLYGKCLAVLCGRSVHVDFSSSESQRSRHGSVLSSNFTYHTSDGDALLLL
Excerpt: as §1, §2

CXCR4 = molecular target: T4, CXCR4 (Homo sapiens, UniProt P61073); assay: gp120-induced calcium flux, Ghost (3) cells transfected with CXCR4; details: Ghost (3) CXCR4 cells
T4 construct: host or cells: Ghost (3) cells (human osteosarcoma, CD4+)
Method: (§3) Calcium studies were done on HT-29 cells and Ghost (3) cells loaded with Fluo 4. The cells were placed in Locke's buffer containing 5 μg/ml Fluo 4 AM ester (Molecular Probes) for 20 to 30 minutes, then in Locke's buffer for an additional 30 minutes before testing. Various concentrations of gp120IIIB (X4 trophic), gp120CM235 (R5 trophic), gp120mN (X4 trophic), gp12093TH975 (nonsyncytium-inducing primary isolate from an asymptomatic subject, trophism undetermined but likely R5), and gp120SF2 (X4R5 trophic), ranging from 10 nM to less than 1 pM, were added in Locke's buffer.^6 The gp120 proteins were obtained from the AIDS Research Reagent Referral Program. Some HT-29 cells were given one of the following pretreatments: 50 μg/ml anti-Bob37 overnight, 1 μg/ml pertussis toxin overnight, or 4.6 μg/ml U73122 for one hour. With the HT-29 cells only, similar tests were also performed with SDF-1, MIP-1α, MIP-1β, and RANTES rather than gp120. The cells were visualized every 4 seconds in a confocal microscope, using 488 nm argon laser excitation and detection filters appropriate for fluorescein-like dyes.
as §1
(§4) Within 4 days of plating, coreceptor-transfected Ghost (3) cells (as well as the parent cell line not transfected to express any HIV coreceptors as a control) were put in Locke's medium, then treated with Fluo-4 (5 micrograms/ml for 30 minutes at 37° C.). After an additional 30 minute incubation in Locke's buffer at room temperature, the cells were examined in a confocal microscope while gp120 of various viral strains was added, and the cells were examined at 4 second intervals to look for a gp120-induced calcium flux. The results are given in the following table, expressed as the minimal concentration of gp120 resulting in a significant calcium flux. “−” means that no reproducible calcium flux was observed. “ND” means that the gp120 of that viral strain was not tested with the stated coreceptor. […]

CCR8 = molecular target: T5, CCR8 (Homo sapiens, UniProt P51685); assay: gp120-induced calcium flux, Ghost (3) cells transfected with CCR8; details: Ghost (3) CCR8 cells
T5 construct: host or cells: Ghost (3) cells (human osteosarcoma, CD4+)
Excerpt: as §1, §2

CCR5 = molecular target: T6, CCR5 (Homo sapiens, UniProt P51681); assay: gp120-induced calcium flux, Ghost (3) cells transfected with CCR5; details: Ghost (3) CCR5 cells
T6 construct: host or cells: Ghost (3) cells (human osteosarcoma, CD4+)
Method: as §3, §1, §4

CXCR6/Bonzo = molecular target: T7, CXCR6/Bonzo (Homo sapiens, UniProt O00574); assay: gp120-induced calcium flux, Ghost (3) cells transfected with CXCR6/Bonzo; details: Ghost (3) CXCR6/Bonzo cells
T7 construct: host or cells: Ghost (3) cells (human osteosarcoma, CD4+)
Excerpt: as §1, §2

Row | Substance | minimal concentration of gp120 resulting in a significant calcium flux (CCR4) | minimal concentration of gp120 resulting in a significant calcium flux (CCR3) | minimal concentration of gp120 resulting in a significant calcium flux (CX3CR1) | minimal concentration of gp120 resulting in a significant calcium flux (CXCR4) | minimal concentration of gp120 resulting in a significant calcium flux (CXCR4; listed as IIIB) | minimal concentration of gp120 resulting in a significant calcium flux (CCR8) | minimal concentration of gp120 resulting in a significant calcium flux (CCR5) | minimal concentration of gp120 resulting in a significant calcium flux (CCR5; listed as IIIB) | minimal concentration of gp120 resulting in a significant calcium flux (CXCR6/Bonzo)
1 | gp120IIIB: HIV-1 envelope surface protein gp120 of strain IIIB (X4 trophic), from the AIDS Research Reagent Referral Program | — | — | — | at least 150 pM | 150 pM | — | about 1 nM | 250 nM | —
2 | gp120SF2: gp120 of HIV strain SF2 (X4R5 trophic) | — | — | — | — |  | — | — |  | —
